Experimental findings from US20240279350A1 (Sanofi, published 2024) are described below.

Test [1] has as its target T1, human CD40 on cells (human, UniProt P25942 21-277). As to the kind of experiment: cell-based or functional assay.
The target of test [2] is T1, human CD40 on cells. Briefly: flow cytometry on Raji cells; EC50 relative to mAb1. The method, then: (§1) Briefly, Raji cells were seeded in 96-well plates at 1.0×10⁵ cells/well and incubated with serially-diluted test antibodies for 60 minutes at 4° C. in 2% FBS/dPBS buffer. The cells were then washed twice with dPBS and further incubated with secondary allophycocyanin (APC)-conjugated AffiniPure F(ab′)₂ fragment donkey anti-human IgG (H+L) antibody (Jackson ImmunoResearch, Ref. 709-136-149) (1:500) for 30 minutes at 4° C. Finally, the cells were washed twice with dPBS and suspended in FACS buffer for flow cytometry analysis. MFI values vs concentrations were analyzed by FlowJo and data were further fitted with four-parameter non-linear regression to get EC₅₀ values by GraphPad Prism software.

In test [3] the target is T1, human CD40 on cells. Briefly: cell-based or functional assay. The source holds these as a separate data set.
The target of test [4] is T1, human CD40 on cells. As to the kind of experiment: flow cytometry on U-2 OS/NFκB cells. How it is done: as §1, with “cultured U-2 OS/NFκB” for “Raji”
Test [5] addresses T1, human CD40 on cells. As to the kind of experiment: flow cytometry on U-2 OS/NFκB cells; EC50 relative to mAb1. The method, then: as §1, with “cultured U-2 OS/NFκB” for “Raji”
The target of test [6] is T1, human CD40 on cells. As to the kind of experiment: flow cytometry on Raji cells. How it is done:
as §1

T1 sequence (P25942 21-277 limits assumed): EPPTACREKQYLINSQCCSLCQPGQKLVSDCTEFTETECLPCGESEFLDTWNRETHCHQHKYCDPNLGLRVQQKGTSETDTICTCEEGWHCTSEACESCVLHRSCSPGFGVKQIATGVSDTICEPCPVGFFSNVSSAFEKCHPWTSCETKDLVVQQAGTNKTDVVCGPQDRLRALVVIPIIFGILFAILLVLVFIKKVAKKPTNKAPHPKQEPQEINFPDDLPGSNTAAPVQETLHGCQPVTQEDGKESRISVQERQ

B1: MMP9-activated (MC1/MC2) (antibody, not shown: small tags and cut ends)
heavy: QVQLVQSGAEVKKPGASVKVSCKASGYTFTGKYMHWVRQAPGQGLEWMGWINPDSGGTNYAQKFQGRVTMTRDTSIATAYMELNRLRSDDTAVYYCARDQPLGYCTNGVCSYFDYWGQGTLVTVSSASTKGPSVFPLAPCSRSTSESTAALGCLVKDYFPEPVTVSWNSGALTSGVHTFPAVLQSSGLYSLSSVVTVPSSNFGTQTYTCNVDHKPSNTKVDKTVERKCCVECPPCPAPPVAGPSVFLFPPKPKDTLMISRTPEVTCVVVDVSHEDPEVQFNWYVDGVEVHNAKTKPREEQFNSTFRVVSVLTVVHQDWLNGKEYKCKVSNKGLPAPIEKTISKTKGQPREPQVYTLPPSREEMTKNQVSLTCLVKGFYPSDIAVEWESNGQPENNYKTTPPMLDSDGSFFLYSKLTVDKSRWQQGNVFSCSVMHEALHNHYTQKSLSLSPGK
light: DIQMTQSPSSVSASVGDRVTITCRASQGIYSWLAWYQQKPGKAPNLLIYTASTLQSGVPSRFSGSGSGTDFTLTISSLQPEDFATYYCQQANIFPLTFGGGTKVEIKRTVAAPSVFIFPPSDEQLKSGTASVVCLLNNFYPREAKVQWKVDNALQSGNSQESVTEQDSKDSTYSLSSTLTLSKADYEKHKVYACEVTHQGLSSPVTKSFNRGEC
On to B1, for which, in test [1], the “EC50, CD86 expression, primary human B-cell activation assay” value was found to be 0.114 nM and the “Relative masking efficacy, CD86 expression, primary human B-cell activation assay” value is 0.65 fold. Besides, the Relative masking efficacy in test [2] came to 1.1 fold. Moreover, in test [3], the “EC50, luciferase reporter assay in U-2 OS/NFκB cells” value was 0.261 nM and the “Relative masking efficacy, luciferase reporter assay in U-2 OS/NFκB cells” value is 1.1 fold. In test [4], this molecule gave an EC50 of 1.94 nM. In test [5], the Relative masking efficacy amounted to 1.3 fold. In test [6], this molecule displayed an EC50 of 1.46 nM.

B2: uPA-activated (MC3/MC4) (antibody, not shown: small tags and cut ends)
heavy: QVQLVQSGAEVKKPGASVKVSCKASGYTFTGKYMHWVRQAPGQGLEWMGWINPDSGGTNYAQKFQGRVTMTRDTSIATAYMELNRLRSDDTAVYYCARDQPLGYCTNGVCSYFDYWGQGTLVTVSSASTKGPSVFPLAPCSRSTSESTAALGCLVKDYFPEPVTVSWNSGALTSGVHTFPAVLQSSGLYSLSSVVTVPSSNFGTQTYTCNVDHKPSNTKVDKTVERKCCVECPPCPAPPVAGPSVFLFPPKPKDTLMISRTPEVTCVVVDVSHEDPEVQFNWYVDGVEVHNAKTKPREEQFNSTFRVVSVLTVVHQDWLNGKEYKCKVSNKGLPAPIEKTISKTKGQPREPQVYTLPPSREEMTKNQVSLTCLVKGFYPSDIAVEWESNGQPENNYKTTPPMLDSDGSFFLYSKLTVDKSRWQQGNVFSCSVMHEALHNHYTQKSLSLSPGK
light: DIQMTQSPSSVSASVGDRVTITCRASQGIYSWLAWYQQKPGKAPNLLIYTASTLQSGVPSRFSGSGSGTDFTLTISSLQPEDFATYYCQQANIFPLTFGGGTKVEIKRTVAAPSVFIFPPSDEQLKSGTASVVCLLNNFYPREAKVQWKVDNALQSGNSQESVTEQDSKDSTYSLSSTLTLSKADYEKHKVYACEVTHQGLSSPVTKSFNRGEC
notes: Masked compound with CL2 (MC3 or MC4, printed 'MC3/MC4') after cleavage of the masking moiety by recombinant human uPA
For B2, in test [1], the “EC50, CD86 expression, primary human B-cell activation assay” value came out at 0.134 nM and the “Relative masking efficacy, CD86 expression, primary human B-cell activation assay” value was 0.77 fold. For the same molecule, the Relative masking efficacy in test [2] is 1.5 fold. Besides, in test [3], the “EC50, luciferase reporter assay in U-2 OS/NFκB cells” value is 0.362 nM and the “Relative masking efficacy, luciferase reporter assay in U-2 OS/NFκB cells” value amounted to 1.5 fold. This molecule had an EC50 in test [4] of 2.52 nM. In addition, the Relative masking efficacy in test [5] turned out to be 1.7 fold. In test [6], this molecule gave an EC50 of 2.01 nM.
